Experimental data as given in patent US20260242478A1 (published 2026).
Where no end group is shown, it is not given here.

B1: Phage-2222 (peptide)
peptide: TEKWCIPQWMCEAT
modifications: cysteine pairing not given here; also: displayed on phage, fused to pIII
notes: Peptide-180 library clone, tested as clonal phage (peptide fused to the pIII filament of the bacteriophage)
B2: Phage-2231 (peptide)
peptide: LSKWCIPEWMCAVM
modifications: cysteine pairing not given here; also: pIII fusion on bacteriophage (not given here)
B3: Phage-2313 (peptide)
peptide: LEKWCMPPWMCSGT
modifications: cysteine pairing not given here; also: displayed on bacteriophage by fusion to pIII
B4: Phage-2315 (peptide)
peptide: EARWCTPPWMCAYM
modifications: cysteine pairing not given here; also: displayed on bacteriophage by fusion to pIII
B5: Phage-2221 (peptide)
peptide: GHQWCIPQWMCVGL
notes: Tested as clonal phage supernatant, with the peptide fused to pIII of the bacteriophage

Biological target: T1, Anti-PSMA Fab (SEQ ID NOs: 19, 20)
T1 construct: Biotinylated and captured on neutravidin coated plates in the phage ELISA; also called 006 PSMA Fab
Test: phage binding ELISA on plate-captured PSMA Fab, wells pre-incubated with PSMA antigen as competitor
Protocol: (§1) Clonal phage were harvested as crude supernatants and screened via standard ELISAs. […] Prior to the addition of clonal phage. wells were incubated with blocking buffer and PSMA antigen or blocking buffer alone. Without washing or aspirating, clonal phage supernatants were then added to the wells and incubated for a short time. Wells were then washed followed by detection of bound phage using a horse radish conjugated anti-M13 antibody.

Binder	Anti-PSMA Fab signal in the presence of PSMA
B1	0.0783
FLKWCTPEWMCSDV [Phage-2223]	0.128
AIKWCTPPWMCDWH [Phage-2224]	0.131
LFKVCTPSWMCSGF [Phage-2225]	0.0813
LAYWCTPAWMCEGF [Phage-2226]	0.112
SELWCIPPWMCNFL [Phage-2227]	0.0684
LVKWCIPQWMCEQA [Phage-2228]	0.0712
LLKWCTPPWMCELH [Phage-2229]	0.0932
TDMWCIPPWMCERI [Phage-2230]	0.0846
B2	0.0848
QLNWCRPAWMCEGF [Phage-2232]	0.128
EIQWCTPSWMCPWL [Phage-2233]	0.0668
MPNWCTPTWMCQGF [Phage-2234]	0.0682
FNKWCVPAWMCSDM [Phage-2235]	0.0946
PRKWCIPAWMCEII [Phage-2236]	0.0733
VSAWCIPPWMCGTN [Phage-2237]	0.0801

Biological target: T2, PSMA Fab (006 PSMA Fab)
T2 construct: also called Anti-PSMA Fab; anti-PSMA Fab
Test: clonal phage ELISA; biotinylated PSMA Fab on neutravidin plate, blocking buffer alone; anti-M13-HRP detection;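 further: clonal phage applied as crude supernatants to wells preincubated with blocking buffer, binding read by ELISA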
Protocol: as §1

Binder	Phage binding ELISA signal, Anti-PSMA Fab
B3	1.47
FVNWCIPTWMCPEI [Phage-2314]	1.47
B4	1.47
GMLACTPAWMCEGF [Phage-2316]	1.47
MEQWCIPQWMCSGF [Phage-2317]	1.46
LEKWCTPVWMCEGV [Phage-2318]	1.46
SDNWCKPKWMCETI [Phage-2319]	1.45
VSNWCIPRGLCTQM [Phage-2320]	1.45
LDKWCIPPWMCETV [Phage-2321]	1.45
LEKWCIPTWMCEMT [Phage-2322]	1.45
WDHWCTPAWMCFNA [Phage-2323]	1.45
HSHWCIPPWMCTFV [Phage-2324]	1.45
VEKLCIPHWMCEAS [Phage-2325]	1.45
GPTLCIPAWMCSGM [Phage-2326]	1.45
SVHWCTPPWMCQGF [Phage-2327]	1.45
VDKWCIPAWMCVSA [Phage-2328]	1.45

Biological target: T3, 006 PSMA Fab
T3 construct: Biotinylated and captured on neutravidin-coated plates in the phage ELISA; also called Anti-PSMA Fab
Test: clonal phage ELISA; biotinylated PSMA Fab on neutravidin plate, anti-M13-HRP detection
Protocol: as §1

Binder	phage binding ELISA signal
GEKWCIPTWMCDWT [Phage-2373]	1.4
MGNWCIPEWMCWGT [Phage-2374]	1.4
DGKWCIPPWMCAMA [Phage-2375]	1.4
PDKWCIPQWMCDIT [Phage-2376]	1.39
HDKLCIPLWMCDGV [Phage-2377]	1.39
VVKWCIPTWMCQTL [Phage-2378]	1.39
LHKWCTPAWMCEVP [Phage-2379]	1.39
VQKWCIPPWMCQIS [Phage-2380]	1.39
LGIWCIPEWMCVSA [Phage-2381]	1.39
DFMRCTPEWMCTGF [Phage-2382]	1.39
FEHWCTPPWMCFSS [Phage-2383]	1.38

Biological target: T1, Anti-PSMA Fab (SEQ ID NOs: 19, 20)
Test: phage binding ELISA, clonal phage on plate-captured biotinylated PSMA Fab
Protocol: as §1

Binder	Anti-PSMA Fab (SEQ ID NOs: 19, 20) signal
B1	1.58
FLKWCTPEWMCSDV [Phage-2223]	1.58
AIKWCTPPWMCDWH [Phage-2224]	1.58
LFKVCTPSWMCSGF [Phage-2225]	1.58
LAYWCTPAWMCEGF [Phage-2226]	1.57
SELWCIPPWMCNFL [Phage-2227]	1.57
LVKWCIPQWMCEQA [Phage-2228]	1.57
LLKWCTPPWMCELH [Phage-2229]	1.57
TDMWCIPPWMCERI [Phage-2230]	1.57
B2	1.57
QLNWCRPAWMCEGF [Phage-2232]	1.57
EIQWCTPSWMCPWL [Phage-2233]	1.57
MPNWCTPTWMCQGF [Phage-2234]	1.57
FNKWCVPAWMCSDM [Phage-2235]	1.56
PRKWCIPAWMCEII [Phage-2236]	1.56
VSAWCIPPWMCGTN [Phage-2237]	1.56

Biological target: T3, 006 PSMA Fab
Test: clonal phage ELISA on PSMA Fab-coated plate; competitor: PSMA antigen pre-incubated in the well
Protocol: as §1

Binder	phage binding ELISA signal in presence of PSMA
GEKWCIPTWMCDWT [Phage-2373]	0.0544
MGNWCIPEWMCWGT [Phage-2374]	0.0727
DGKWCIPPWMCAMA [Phage-2375]	0.0859
PDKWCIPQWMCDIT [Phage-2376]	0.0617
HDKLCIPLWMCDGV [Phage-2377]	0.0834
VVKWCIPTWMCQTL [Phage-2378]	0.101
LHKWCTPAWMCEVP [Phage-2379]	0.0904
VQKWCIPPWMCQIS [Phage-2380]	0.0907
LGIWCIPEWMCVSA [Phage-2381]	0.0793
DFMRCTPEWMCTGF [Phage-2382]	0.0663
FEHWCTPPWMCFSS [Phage-2383]	0.0713

Biological target: T2, PSMA Fab (006 PSMA Fab)
Test: clonal phage ELISA; biotinylated PSMA Fab on neutravidin plate pre-incubated with competitor PSMA antigen; anti-M13-HRP detection
Protocol: as §1

Binder	Phage binding ELISA signal, Anti-PSMA Fab in presence of PSMA antigen
B3	0.0701
FVNWCIPTWMCPEI [Phage-2314]	0.233
B4	0.0724
GMLACTPAWMCEGF [Phage-2316]	0.0923
MEQWCIPQWMCSGF [Phage-2317]	0.0911
LEKWCTPVWMCEGV [Phage-2318]	0.0702
SDNWCKPKWMCETI [Phage-2319]	0.116
VSNWCIPRGLCTQM [Phage-2320]	0.0665
LDKWCIPPWMCETV [Phage-2321]	0.0597
LEKWCIPTWMCEMT [Phage-2322]	0.0679
WDHWCTPAWMCFNA [Phage-2323]	0.119
HSHWCIPPWMCTFV [Phage-2324]	0.162
VEKLCIPHWMCEAS [Phage-2325]	0.0647
GPTLCIPAWMCSGM [Phage-2326]	0.0802
SVHWCTPPWMCQGF [Phage-2327]	0.0771
VDKWCIPAWMCVSA [Phage-2328]	0.0715

Biological target: T4, Anti-PSMA Fab (SEQ ID NOs: 19, 20)
T4 construct: Biotinylated and captured on neutravidin coated plates in the phage ELISA; also called 006 PSMA Fab
Test: phage ELISA; biotinylated PSMA Fab on neutravidin plate, bound phage detected with anti-M13-HRP;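 further: crude clonal phage supernatants added, without a wash, to wells pretreated with PSMA antigen in blocking buffer or with blocking buffer only, then briefly incubated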
Protocol: as §1

Binder	Phage binding ELISA, Anti-PSMA Fab signal
B5	1.58

Biological target: T4, Anti-PSMA Fab (SEQ ID NOs: 19, 20)
Test: phage ELISA; PSMA Fab on plate pre-incubated with PSMA antigen as competitor, anti-M13-HRP detection;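 further: clonal phage from crude supernatants added without washing to wells preblocked with or without PSMA antigen, washed, bound phage read out by ELISA with HRP-linked anti-M13 antibody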
Protocol: as §1

Binder	Phage binding ELISA, Anti-PSMA Fab signal in the presence of PSMA
B5	0.0809
